Source: patent publication US20140087995A1 (published 2014)
Numbered stars: 1 amine (or outer) side, 2 acyl side, 3 side chain; on linkers, the order of the positions; unused ones are H or OH. Bridge positions count the residues as written; N and C are the ends. Side chains are listed from the residue outwards. Ends that are not written are not given here. * marks the point of attachment. C20 diacid = O=C(O)CCCCCCCCCCCCCCCCCCC(=O)*; γGlu = O=C(O)[C@H](CCC(=O)[*:2])N[*:1]

Columns and labels:
[1] = target: T1, human amylin receptor (amylin 3(a) receptor: human calcitonin receptor plus RAMP-3) (human, UniProt P30988 25-474; O60896 24-148, limits assumed); assay: SPA competition binding, membranes of Amylin 3(a)/CRE-luc BHK cells, displacement of 125I-rat amylin (Assay V)
T1 construct: whole, on cells; the functional assay (Assay IIa) used the whole cells; also called hAmylin-R; hAmylinR
T1 sequence (looked up) 1: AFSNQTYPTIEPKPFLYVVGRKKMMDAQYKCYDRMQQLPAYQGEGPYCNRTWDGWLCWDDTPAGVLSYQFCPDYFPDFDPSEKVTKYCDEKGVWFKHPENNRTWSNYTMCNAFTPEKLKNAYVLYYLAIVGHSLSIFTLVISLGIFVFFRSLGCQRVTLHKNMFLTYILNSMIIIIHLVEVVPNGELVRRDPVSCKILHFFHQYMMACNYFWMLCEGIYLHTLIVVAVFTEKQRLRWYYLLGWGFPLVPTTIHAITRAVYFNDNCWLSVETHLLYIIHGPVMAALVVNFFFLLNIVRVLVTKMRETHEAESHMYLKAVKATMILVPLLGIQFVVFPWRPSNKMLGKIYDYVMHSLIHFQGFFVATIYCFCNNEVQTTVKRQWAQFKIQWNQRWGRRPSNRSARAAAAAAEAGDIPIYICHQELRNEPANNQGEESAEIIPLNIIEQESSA
T1 sequence (looked up) 2: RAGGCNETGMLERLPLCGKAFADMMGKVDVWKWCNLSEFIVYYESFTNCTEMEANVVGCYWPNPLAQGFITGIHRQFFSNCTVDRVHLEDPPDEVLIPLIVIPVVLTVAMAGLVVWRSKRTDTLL
Experimental: The binding assay was performed using scintillation proximity assay (SPA) beads (RPNQ0001) from PerkinElmer and cell membranes from the Amylin 3(a)/CRE-luc cells (as described in Assay (II)) were used. Membranes were prepared in the following way; the cells were rinsed with PBS and incubated with Versene for approximately 5 min before harvesting. The cells were flushed with PBS and the cell-suspension was centrifuged for 5 min at 1000 rpm. Cells were homogenized (ultrathurrax) in a buffer containing 20 mM Na-HEPES and 10 mM EDTA (pH 7.4) and centrifuged at 20.000 rpm for 15 min. The resulting pellet was resuspended, homogenized and centrifuged (20.000 rpm, 15 min) in a buffer containing 20 mM Na-HEPES and 0.1 mM EDTA (pH 7.4, buffer 2). The resulting pellet was resuspended in buffer 2 and protein concentration was measured (BCA protein Assay, Pierce). The homogenate was kept cold during the whole procedure. The membranes were kept at −80° C. until use. The assay was performed in a 384 well Optiplate (PerkinElmer) in a total volume of 40 ul. Membranes were mixed with SPA beads. Final concentration of membranes 35 ng/μL final and SPA beads was 0.05 mg/well. Test-compounds were dissolved in DMSO and further diluted in assay buffer (50 mM Hepes, pH 7.4, 1 mM CaCl2, 5 mM MgCl₂, 0.1% OA and 0.02% Tween20). […] The final mixture was incubated with shaking at 400 rpm for 120 min at 25° C. prior to centrifugation (1500 rpm, 10 min). Samples were analyzed on TopCounter™ (Packard). The IC₅₀ was calculated using (one site binding competition analysis) GraphPad Prism5 as a measure of receptor affinity.

[2] = target: T2, human calcitonin receptor (human, UniProt P30988 25-474); assay: cell-based or functional assay
T2 sequence (looked up): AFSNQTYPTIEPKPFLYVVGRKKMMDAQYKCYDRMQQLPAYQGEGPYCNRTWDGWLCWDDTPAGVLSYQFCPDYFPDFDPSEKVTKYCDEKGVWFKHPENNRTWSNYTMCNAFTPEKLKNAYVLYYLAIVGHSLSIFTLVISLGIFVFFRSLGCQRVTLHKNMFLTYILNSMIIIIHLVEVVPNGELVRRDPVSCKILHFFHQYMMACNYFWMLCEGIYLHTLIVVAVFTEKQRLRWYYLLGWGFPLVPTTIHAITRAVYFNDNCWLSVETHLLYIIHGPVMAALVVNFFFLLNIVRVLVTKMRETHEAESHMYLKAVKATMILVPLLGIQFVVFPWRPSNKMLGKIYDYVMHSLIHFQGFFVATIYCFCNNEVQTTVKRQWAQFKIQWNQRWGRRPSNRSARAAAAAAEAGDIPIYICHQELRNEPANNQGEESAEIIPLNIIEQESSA

[3] = target: T1, human amylin receptor (amylin 3(a) …); assay: cell-based or functional assay
[4] = target: T3, human amylin receptor (human calcitonin receptor co-expressed with RAMP-3; amylin 3(a) receptor) (human, UniProt P30988 25-474; O60896 24-148, limits assumed); assay: ratio of hCTR binding IC50 to hAmylin-R binding IC50 (reference: human calcitonin receptor)
T3 construct: whole, on cells; Used as cell membranes prepared from Amylin 3(a)/CRE-luc BHK cells (Assay V), not as intact cells; also called hAmylin-R; hAmylinR
T3 sequence (looked up) 1: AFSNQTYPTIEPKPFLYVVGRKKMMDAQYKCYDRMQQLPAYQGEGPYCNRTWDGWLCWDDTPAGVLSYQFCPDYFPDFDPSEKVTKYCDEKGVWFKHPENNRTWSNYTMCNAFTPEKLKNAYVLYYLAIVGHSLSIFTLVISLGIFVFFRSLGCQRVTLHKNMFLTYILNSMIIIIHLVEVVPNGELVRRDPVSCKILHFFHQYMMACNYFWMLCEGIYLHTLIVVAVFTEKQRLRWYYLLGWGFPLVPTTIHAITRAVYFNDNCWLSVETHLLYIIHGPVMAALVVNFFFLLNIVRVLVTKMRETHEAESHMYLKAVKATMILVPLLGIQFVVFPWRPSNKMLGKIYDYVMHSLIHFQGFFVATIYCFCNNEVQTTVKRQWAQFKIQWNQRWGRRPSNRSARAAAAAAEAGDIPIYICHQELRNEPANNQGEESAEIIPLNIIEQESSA
T3 sequence (looked up) 2: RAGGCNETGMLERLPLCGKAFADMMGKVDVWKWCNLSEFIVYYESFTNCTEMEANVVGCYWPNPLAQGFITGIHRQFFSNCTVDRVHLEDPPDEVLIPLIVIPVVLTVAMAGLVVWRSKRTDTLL
Method in brief: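 IC₅₀ values were derived by one-site competition analysis of SPA counts. Cell membranes (35 ng/μL) with SPA beads were incubated with test compounds for 120 min at 25° C in Hepes buffer, pH 7.4, containing CaCl2, MgCl₂, OA and Tween20.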

[5] = target: T4, human calcitonin receptor (human, UniProt P30988 25-474); assay: SPA competition against 125I-calcitonin, membranes with human calcitonin receptor (Assay VII)
T4 construct: whole, on cells; Used as cell membranes prepared from the transfected BHK cells (Assay VII), not as intact cells; also called hCTR; hCT
T4 sequence (looked up): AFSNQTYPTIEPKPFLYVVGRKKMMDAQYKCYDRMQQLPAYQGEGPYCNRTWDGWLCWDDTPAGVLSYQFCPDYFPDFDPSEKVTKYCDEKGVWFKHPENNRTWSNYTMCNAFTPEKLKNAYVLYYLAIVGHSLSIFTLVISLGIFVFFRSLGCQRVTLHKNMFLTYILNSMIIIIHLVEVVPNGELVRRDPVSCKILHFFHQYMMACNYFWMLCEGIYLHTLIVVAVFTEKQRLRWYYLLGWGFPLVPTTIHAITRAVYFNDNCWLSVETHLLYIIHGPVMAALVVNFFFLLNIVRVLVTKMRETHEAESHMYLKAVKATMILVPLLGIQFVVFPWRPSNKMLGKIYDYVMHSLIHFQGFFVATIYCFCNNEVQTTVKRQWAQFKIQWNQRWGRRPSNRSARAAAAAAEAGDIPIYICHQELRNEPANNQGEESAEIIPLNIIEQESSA
Method in brief: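 BHK hCTR membranes 35 ng/μL + SPA beads 0.05 mg/well; buffer 50 mM Hepes pH 7.4, 1 mM CaCl2, 5 mM MgCl₂, 0.1% OA, 0.02% Tween20. 120 min, 25° C., shaking. Scintillation count; IC50 by one-site binding competition.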

B1: N^α1-[(4S)-4-carboxy-4-(19-carboxynonadecanoylamino)butanoyl]-[Arg17,Pro21,Pro27,Lys35]-h-amylin (peptide)
peptide: KCNTATCATQRLANFLRHSSPNFGAIPSSTNVGSKTY
modifications: C20 diacid-gGlu on the alpha amino group of the N-terminal residue; Cys2-Cys7 disulfide and C-terminal amide as in human amylin
notes: also called compound 34
IC50 [1]: 1.14 nM | Ratio hCT/hAmylin funct. (hCTR EC50 against hAmylin-R EC50) [2]: 8.4 | hCTR funct. EC50 [2]: 2.62 nM | hAmylin-R funct. EC50 [3]: 0.313 nM

B2: N^α1-[2-[2-[2-[[2-[2-[2-[[(4S)-4-carboxy-4-(19-carboxynonadecanoylamino)butanoyl]amino]ethoxy]ethoxy]acetyl]amino]ethoxy]ethoxy]acetyl]-[Arg17,Pro21,Pro27]-h-am … (peptide)
peptide: KCNTATCATQRLANFLRHSSPNFGAIPSSTNVGSNTY
modifications: C20 diacid-gGlu-2xOEG on the alpha amino group of the N-terminal residue; Cys2-Cys7 disulfide and C-terminal amide as in human amylin
notes: also called compound 24
IC50 [1]: 1.14 nM | Ratio hCT/hAmylin funct. (hCTR EC50 against hAmylin-R EC50) [2]: 23.1 | hCTR funct. EC50 [2]: 10 nM | hAmylin-R funct. EC50 [3]: 0.433 nM

B3: N^ε1-[(4S)-4-carboxy-4-(19-carboxynonadecanoylamino)butanoyl]-[His14,Arg17,Pro21,Pro27,Pro31]-h-amylin (peptide)
peptide: K([γGlu-C20 diacid])CNTATCATQRLAHFLRHSSPNFGAIPSSTPVGSNTY-NH2
modifications: disulfide 2-7; N-terminus assumed
SMILES: CC[C@H](C)[C@H](NC(=O)[C@H](C)NC(=O)CNC(=O)[C@H](Cc1ccccc1)NC(=O)[C@H](CC(N)=O)NC(=O)[C@@H]1CCCN1C(=O)[C@H](CO)NC(=O)[C@H](CO)NC(=O)[C@H](Cc1c[nH]cn1)NC(=O)[C@H](CCCNC(=N)N)NC(=O)[C@H](CC(C)C)NC(=O)[C@H](Cc1ccccc1)NC(=O)[C@H](Cc1c[nH]cn1)NC(=O)[C@H](C)NC(=O)[C@H](CC(C)C)NC(=O)[C@H](CCCNC(=N)N)NC(=O)[C@H](CCC(N)=O)NC(=O)[C@@H](NC(=O)[C@H](C)NC(=O)[C@@H]1CSSC[C@H](NC(=O)[C@@H](N)CCCCNC(=O)CC[C@H](NC(=O)CCCCCCCCCCCCCCCCCCC(=O)O)C(=O)O)C(=O)N[C@@H](CC(N)=O)C(=O)N[C@@H]([C@@H](C)O)C(=O)N[C@@H](C)C(=O)N[C@@H]([C@@H](C)O)C(=O)N1)[C@@H](C)O)C(=O)N1CCC[C@H]1C(=O)N[C@@H](CO)C(=O)N[C@@H](CO)C(=O)N[C@H](C(=O)N1CCC[C@H]1C(=O)N[C@H](C(=O)NCC(=O)N[C@@H](CO)C(=O)N[C@@H](CC(N)=O)C(=O)N[C@H](C(=O)N[C@@H](Cc1ccc(O)cc1)C(N)=O)[C@@H](C)O)C(C)C)[C@@H](C)O
notes: also called compound 62
Ratio hCT/hAmylin binding [4]: 63 | IC50 [5]: 6.17 nM

B4: N^ε1N^ε1-[(4S)-4-carboxy-4-(19-carboxynonadecanoylamino)butanoyl]-[His14,Arg17,Pro21,Pro27,Pro34]-h-amylin (peptide)
peptide: K([γGlu-C20 diacid])CNTATCATQRLAHFLRHSSPNFGAIPSSTNVGPNTY-NH2
modifications: disulfide 2-7; N-terminus assumed
SMILES: CC[C@H](C)[C@H](NC(=O)[C@H](C)NC(=O)CNC(=O)[C@H](Cc1ccccc1)NC(=O)[C@H](CC(N)=O)NC(=O)[C@@H]1CCCN1C(=O)[C@H](CO)NC(=O)[C@H](CO)NC(=O)[C@H](Cc1c[nH]cn1)NC(=O)[C@H](CCCNC(=N)N)NC(=O)[C@H](CC(C)C)NC(=O)[C@H](Cc1ccccc1)NC(=O)[C@H](Cc1c[nH]cn1)NC(=O)[C@H](C)NC(=O)[C@H](CC(C)C)NC(=O)[C@H](CCCNC(=N)N)NC(=O)[C@H](CCC(N)=O)NC(=O)[C@@H](NC(=O)[C@H](C)NC(=O)[C@@H]1CSSC[C@H](NC(=O)[C@@H](N)CCCCNC(=O)CC[C@H](NC(=O)CCCCCCCCCCCCCCCCCCC(=O)O)C(=O)O)C(=O)N[C@@H](CC(N)=O)C(=O)N[C@@H]([C@@H](C)O)C(=O)N[C@@H](C)C(=O)N[C@@H]([C@@H](C)O)C(=O)N1)[C@@H](C)O)C(=O)N1CCC[C@H]1C(=O)N[C@@H](CO)C(=O)N[C@@H](CO)C(=O)N[C@H](C(=O)N[C@@H](CC(N)=O)C(=O)N[C@H](C(=O)NCC(=O)N1CCC[C@H]1C(=O)N[C@@H](CC(N)=O)C(=O)N[C@H](C(=O)N[C@@H](Cc1ccc(O)cc1)C(N)=O)[C@@H](C)O)C(C)C)[C@@H](C)O
notes: also called compound 67
Ratio hCT/hAmylin binding [4]: 51.6 | IC50 [5]: 4.63 nM
